Source: PMC7716773, “Known Evolutionary Paths Are Accessible to Engineered ß-Lactamases Having Altered Protein Motions at the Timescale of Catalytic Turnover” (Frontiers in Molecular Biosciences, 2020)

Tested on: CO/N=C(\C(=O)N[C@@H]1C(=O)N2C(C(=O)O)=C(COC(C)=O)CS[C@H]12)c1csc(N)n1
Assay: purified protein
Settings: 27°C, cefotaxime 12.5-200 μM, enzyme 5–70 nM

With “TEM-1 ß-lactamase (TEM-1) (Escherichia coli)” as the substance, how does the Km read?
The Km was 1,500 ± 900 μM.

What about the kcat of the same substance?
The kcat was 1 ± 0.5 s⁻¹.

And the kcat/Km?
Its kcat/Km is 680 ± 530 M⁻¹ s⁻¹.
